Measured values: patent publication US20260035452A1 (THE UNIVERSITY OF BIRMINGHAM, priority 2022, published 2026)

Tests used:
dorsal air pouch of mice = settings: single administration 1 μg/pouch into 6-day old air pouch; previous studies; cited from earlier work
[1] = tested on: hPBMC on cytokine-stimulated HDBEC monolayers; assay: Human PBMC static adhesion / transendothelial migration assay; type: cell-based; settings: co-treatment plus TNF-α
Procedure: FIG. 10: Human dermal blood endothelial cells (HDBEC) were treated with: IL-17 vehicle (Ctrl), IL-17 or FM-0410 (100 ng/ml), alone or in combination with TNF-α (100 U/ml) for 24 h. Cells were washed, gated in their totality and singlet before the identification of IL-17Rs (RA and RC) (A, B), ICAM (C) and VCAM (D) expression. Histogram values (expressed as MIF) indicate the total positive cells (A-D). In (E) are shown phase-contrast micrographs of confluent monolayers of untreated or treated (as reported before) HDBEC. Total adhesion (expressed as INT/mm^2, F) and % of transmigration (G) are calculated with Image Pro programme (DataCell, Finchampstead). Inflammatory supernatants from all experimental conditions were assayed by Elisa for IL-6 (H) expressed in pg/ml. Data were presented as means±S.D. of n=3 healthy donors. […]
Human PBMC transendothelial migration assay: Prior to beginning the assay, HDBEC monolayers were washed with 37° C. medium 199 (Thermo Fisher Scientific) supplemented with 0.15% w/v BSA (MilliporeSigma) to remove any residual cytokines. hPBMC (1×10^6) were co-cultured with cytokine-stimulated HDBEC monolayers at 37° C. for 20 min. […] Total hPBMC adhesion and mean percentage transmigration were calculated for each well.

neutrophils = assay: Transwell chemotaxis assay; type: cell-based, human
Procedure: The cells migration after IL-17 (10-500 ng/ml), FM-0410 (10-500 ng/ml) or N-Formylmethionine-leucyl-phenylalanine (fmlp; 10^−6 M) treatment was quantified using CountBright™ Absolute Counting Beads. Data were presented as means±S.D. of n=3 healthy donors. Statistical analysis was conducted by one-way ANOVA followed by Bonferroni's for multiple comparisons. ^#P≤0.05, ^##P≤0.01, ^###P≤0.001, ^####P≤0.0001 vs Ctrl group; ^+P≤0.05 vs IL-17. Neutrophil isolation: Blood was taken according to local research ethics committee approval (QMERC2014/61). Informed consent was provided according to the Declaration of Helsinki. All blood samples were collected on the day of experiments from healthy donors and immediately used. Each condition has 3 biological replicates (3 different donors). Neutrophils were isolated using a double density histopaque gradient and hypotonic lysis as described previously. Transwell chemotaxis assay: Chemotaxis was assessed using a transwell assay. […] After 2 hours at 37° C., neutrophils were collected from the bottom wells and quantified by flow cytometry using CountBright™ Absolute Counting Beads (Thermofisher, Rugby, UK) as previously described.

B1: IL-17: recombinant mouse IL-17 purchased from R&D System; full-length cytokine used as comparator and stimulus (protein, UniProt Q62386 26-158, looked up)
Interleukin-17A: AAIIPQSSACPNTEAKDFLQNVKVNLKVFNSLGAKVSSRRPSDYLNRSTSPWTLHRNEDPDRYPSVIWEAQCRHQRCVNAEGKLDHHMNSVLIQQEILVLKREPESCPFTFRVEKMLVGVGCTCVASIVRQAA
time of peak of leukocyte infiltration (dorsal air pouch of mice): 24 h | total number of adhered hPBMC [1]: significant increase | transmigrated hPBMC [1]: significant increase | chemotactic activity compared to positive control fmlp (10^−6 M) (neutrophils; 500 ng/ml): almost similar to positive control fmlp | chemotactic effect on neutrophils (neutrophils; 10-500 ng/ml, vs Control group): concentration-dependent chemotactic effect
